Experimental data taken from US20160250307A1.

Biological target: HLA-A*02 (human)
Assay: UV-ligand exchange, anti-b2m ELISA; grade: exchange yield >=50%

SLTSEIHFL […]
peptide exchange yield: 50 to 75%
